Measured values taken from patent publication US12692310B2, “ASIC1 channel antagonist antibody” (ShanghaiTech University, priority 2019, dated 2026).

Legend:
[1] = molecular target: T1, hASIC1b (Homo sapiens, UniProt P78348); assay: Subtype selectivity, FACS binding, transfected CHO-K1 cells; assay type: cell-based
T1 construct: expressed in transfected cells; host or cells: CHO-K1, transient
T1 sequence (P78348 1-562 isoform P78348-3): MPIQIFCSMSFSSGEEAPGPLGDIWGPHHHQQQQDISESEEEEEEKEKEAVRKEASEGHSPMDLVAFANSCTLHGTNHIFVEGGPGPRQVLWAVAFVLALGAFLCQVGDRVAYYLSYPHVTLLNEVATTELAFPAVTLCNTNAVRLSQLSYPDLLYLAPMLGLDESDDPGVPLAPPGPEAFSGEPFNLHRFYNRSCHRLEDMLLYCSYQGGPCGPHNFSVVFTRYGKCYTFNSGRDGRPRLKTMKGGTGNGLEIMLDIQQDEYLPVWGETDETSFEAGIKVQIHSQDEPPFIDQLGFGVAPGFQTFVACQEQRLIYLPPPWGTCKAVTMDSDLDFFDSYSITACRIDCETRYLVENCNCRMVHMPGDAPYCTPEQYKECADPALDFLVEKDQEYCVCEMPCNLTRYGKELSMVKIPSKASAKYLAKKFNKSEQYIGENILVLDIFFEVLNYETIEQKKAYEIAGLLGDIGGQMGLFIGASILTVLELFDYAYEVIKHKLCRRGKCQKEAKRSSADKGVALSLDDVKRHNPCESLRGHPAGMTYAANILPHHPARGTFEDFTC
Protocol: To test the species and subtype selectivity of ASC06-IgG1, vectors encoding human ASIC1b-eYFP fusion, rat ASIC1a-eYFP fusion, mouse ASIC1a-eYFP fusion, hASIC2a-eYFP fusion, hASIC2b-eYFP fusion, and hASIC3a-eYFP fusion were constructed. The CHO-K1 cells were transiently transfected with these plasmids. FACS binding assay and immunocytochemistry (ICC) were carried out to determine if ASC06-IgG1 is able to bind to the cell surface-expressed ASIC homologs and isotypes.

[2] = molecular target: T2, hASIC1a (Homo sapiens, UniProt P78348); assay: Steady-state desensitization (SSD) and pH activation of hASIC1a, patch clamp; assay type: cell-based
T2 construct: expressed in transfected cells
T2 sequence (P78348 1-528): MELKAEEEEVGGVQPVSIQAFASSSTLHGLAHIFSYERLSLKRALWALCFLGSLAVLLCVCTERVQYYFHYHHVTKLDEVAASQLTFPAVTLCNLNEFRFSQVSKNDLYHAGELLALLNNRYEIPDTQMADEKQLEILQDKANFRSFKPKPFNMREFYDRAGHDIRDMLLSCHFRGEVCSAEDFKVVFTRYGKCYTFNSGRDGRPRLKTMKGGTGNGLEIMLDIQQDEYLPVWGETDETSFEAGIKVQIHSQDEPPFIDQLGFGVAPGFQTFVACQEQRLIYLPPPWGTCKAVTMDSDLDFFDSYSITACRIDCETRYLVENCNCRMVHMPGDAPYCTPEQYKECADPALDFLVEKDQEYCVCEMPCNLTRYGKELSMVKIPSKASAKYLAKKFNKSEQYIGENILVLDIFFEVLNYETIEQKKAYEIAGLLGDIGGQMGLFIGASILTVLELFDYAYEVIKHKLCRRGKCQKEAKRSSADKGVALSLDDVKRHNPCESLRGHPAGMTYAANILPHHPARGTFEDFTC
Protocol: For the measurement of steady-state desensitization (SSD), the pH of the conditioning ECF was adjusted to 7.6, 7.4, 7.2, 7.0, and 6.8 (in a HEPES buffer), while the activating ECF was maintained at pH 6.0 (in an MES buffer). For the measurement of pH activation of the hASIC1a in the 6H7 stable cells, the conditioning ECF was fixed at pH 7.6 (in a HEPES buffer), and the pH of the activating ECF was adjusted to 7.4, 7.2, 7.0, 6.8, 6.5, 6.3, and 6.0. The hASIC1a currents were recorded when the stable cell line 6H7 was patched in the presence and absence of 300 nM ASC06-IgG1. The relative currents expressed as fractions of the maximum amplitude on the sensorgram (I/Imax) were calculated and plotted to constitute SSD and pH activation profiles. Each data point represents the average of at least five patched cells.
To understand the mechanism by which ASC06-IgG1 blocked the hASIC1a currents, SSD and pH activation of hASIC1a in the absence and presence of ASC06-IgG1 were examined. The pH50 (a drop in extracellular pH, which can open 50% of the ASIC1a channel) values of the SSD curve and the pH activation curve for hASIC1a were measured and compared with or without 300 nM ASC06-IgG1. As shown in FIGS. 11A-11B, the SSD was induced when applying the conditioning extracellular fluids (ECFs) with different pH values and the activating ECF at pH 6.0, whereas the pH activation curve was constructed when applying the activating ECFs with varying pH values and the conditioning ECF at pH 7.6.

[3] = system: MCAO-induced ischemic stroke model mice; assay: Middle cerebral artery occlusion (MCAO)-induced ischemic stroke model; assay type: in vivo, mouse; conditions: 4 μL i.c.v. 3 h after ischemia; 100 nM PcTx1 or 3.0 μg/μL ASC06-IgG1; 24 h after injection
Protocol: The Middle Cerebral Artery Occlusion (MCAO) Model. Animal care and the experimental protocols were approved by the Animal Ethics Committee of Shanghai Jiao Tong University School of Medicine, Shanghai, China. A transient ischemic stroke in the left brain hemisphere was established in male mice (C57 BL/6, 20-25 g) using middle cerebral artery occlusion (MCAO) for 1 h before reperfusion. Three hours after ischemia, a total of 4 μL of vehicle solution (PBS) in the absence or presence of neuroprotective agents) 100 nM PcTx1 or 3.0 μg/μL endotoxin-free ASC06-IgG1 ([…])) was administered by an intracerebroventricular (i.c.v.) injection on the contralateral side of the brain hemisphere. An irrelevant endotoxin-free antibody (3.0 μg/μL, […]) was used as isotype control. […] Mice were sacrificed 24 h after the i.c.v. injection. […] The infarct area was calculated by subtracting the normal area stained with TTC in the ischemic hemisphere from that of the nonischemic hemisphere. The infarct volume was calculated by summing infarction areas of all sections and multiplying by slice thickness.
To determine if the protective effect of antibody ASC06-IgG1 in vitro could be extended to pathologies in vivo, the middle cerebral artery occlusion (MCAO) model was used to study the antibody's neuroprotective effect. […] The infarct volume of the cortex and striatum were calculated 24 hours after the injection. […]

B1: ASC06-IgG1: ASC06 antibody converted into a full length IgG1 form (antibody, V domains shown)
VH: QVQLQQSGGGLVQPGGSLRLSCAASGFTFSSYAMSWVRQAPGKGLEWVSAISGSGGSTYYADSVKGRFTISRDNSKNTLYLQMNSLRAEDTAVYYCAKDSFYGYSKGDWGQGTLVTVSS
VL: QSALTQPASVSGSPGQSITISCTGTSSDVGAYNYVSWYQQQPGKAPKLMIYGVSNRPSGVSNRFSGSKSGNAASLTISGLQAEDEADYYCSSYTSSSTYVFGTGTKLTVLG
- FACS recognition of hASIC1b [1]: not
- mechanism of block relative to proton concentration [2]: noncompetitive with the proton concentration
- change of pH50 value of SSD ([2]; 300 nM, activating ECF pH 6.0): No significant differences
- change of pH50 value of pH activation ([2]; 300 nM, conditioning ECF pH 7.6): No significant differences
- interference with SSD and activation of ASIC1a ([2]; 300 nM, representative traces): interferes with neither SSD nor activation
- infarct volume (compared with the contralateral brain region) [3]: about 23%
